# From patent US12065466B2, “Methods and compositions for protein sequencing” (Quantum-Si Incorporated, priority 2020, dated 2024)
# Where two headings read alike, the source gives them in different places.
# Key:
# [1] = molecular target: N-terminal phenylalanine peptide (alanine at the penultimate position); experiment: Fluorescence polarization binding affinity of tandem recognizers, FA peptide
# Protocol: The multivalent binder PS651 was designed as a tandem fusion molecule expressed from a single coding sequence containing segments encoding three copies of atClpS2-V1 (Tris-atClpS2-V1) joined end-to-end by segments encoding a flexible peptide linker (Linker 2). Fluorescence polarization studies were performed with PS651, the Bis-atClpS2-V1 binders (PS609, PS610, PS611), and the monomeric binder atClpS2-V1, to determine the binding affinity of each for a peptide having an N-terminal phenylalanine residue with an alanine residue at the penultimate position. The KD values obtained from these studies are reported below in Table 9.
# [2] = test system: amino acid at a terminal position of a polypeptide; experiment: Amino acid binding preference of recognition proteins (Tables 1 and 2); conditions: Table 1, ClpS proteins; amino acid identity at a terminal position of a polypeptide; inferred from literature and/or demonstrated by the inventors
# Text: It should be appreciated that these sequences and other examples described herein are meant to be non-limiting, and recognition molecules in accordance with the application can include any homologs, variants thereof, or fragments thereof minimally containing domains or subdomains responsible for peptide recognition.
# [3] = test system: peptides with different N-terminal amino acids, penultimate alanine; experiment: Biolayer interferometry of multivalent amino acid binders; assay type: binding
# Protocol: The amino acid binding profile of each Bis-atClpS2-V1 binder (PS609, PS610, and PS611) was evaluated by biolayer interferometry as described above. The monovalent atClpS2-V1 was run as a control. Measurements with each binder were carried out for the amino acids F, Y, and W, along with I, L, M, and V as negative controls. All peptides contained a penultimate alanine (A). Response curves for the tandem binders PS609, PS610, and PS611 are shown in FIGS. 35B, 35C, and 35D, respectively.
# The multivalent binder PS612 is a polypeptide that contains tandem copies of two different ClpS protein monomers (atClpS2-V1 and PS372). The amino acid binding profile of PS612 was evaluated by biolayer interferometry as described above. The monovalent binders atClpS2-V1 and PS372 were separately run as controls.
# The multivalent binder PS614 is a polypeptide that contains two copies of the ClpS binder PS372 oriented in tandem. The amino acid binding profile of PS614 was evaluated by biolayer interferometry as described above.
# The multivalent binders PS637, PS638, and PS639 are polypeptides that each contain two copies of the ClpS binder PS557 oriented in tandem and separated by Linker 1, Linker 2, and Linker 3, respectively. The amino acid binding profiles of each binder was evaluated by biolayer interferometry as described above.
# [4] = test system: FITC labeled N-terminal LA peptide; experiment: Stopped-flow association rate constant (kon), PS557 derivatives; assay type: binding
# Protocol: Stopped-flow assays were performed to measure the association (kon) and dissociation (koff) rates for PS557, atClpS2-V1, and fusion proteins derived by C-terminal addition of protein shields. To measure the on-rate constant by stopped-flow, the binder was rapidly mixed with FITC labeled peptide, and the reaction was followed in real time. N-terminal LA peptide was used for PS557 derivatives and N-terminal FA peptide was used for atClpS2-V1 derivatives. In this assay, the fluorescence signal decreased due to quenching upon protein binding. The averaged traces obtained at multiple concentrations of binder were fitted with a decay equation to derive association rates (FIG. 37A, middle panel). A linear slope from the plot of association rates against different binder concentrations gave the kon rate constant (FIG. 37A, bottom panel).
# [5] = test system: labeled N-terminal LA peptide; experiment: Stopped-flow dissociation rate (koff), PS557 derivatives; assay type: binding; conditions: excess unlabeled trap peptide
# Text: To measure the dissociation rate (koff) by stopped-flow, complexes of binder bound to labeled peptide substrate at an optimal concentration were rapidly mixed with excess unlabeled trap peptide. […] The averaged raw traces were fitted with an exponential equation to determine the koff (FIG. 37B, bottom panel).
# [6] = test system: immobilized peptides containing N-terminal R, K or H; experiment: Biolayer interferometry of UBR-box domain homologs; assay type: binding; conditions: for binding range for RX dipeptides: 14 peptides RXGGGDDDFFK (SEQ ID NO: 241)
# Protocol: The amino acid binding properties of UBR-box domain homologs were evaluated by biolayer interferometry. Peptides containing an N-terminal arginine (R), followed by different amino acids in the penultimate position, were immobilized on a biolayer interferometry sensor surface, allowed to bind to UBR-box protein, and incubated in buffer to allow the UBR-box molecules to dissociate. […] FIG. 32C is a heatmap showing results measured for 24 UBR-box homologs against 14 polypeptides containing N-terminal R followed by different amino acids in the penultimate position.
# UBR proteins bind to the basic N-terminal residues R, K, and H as part of the conserved N-end rule pathway. To identify high-affinity UBR proteins with properties favorable for use in sequencing, a diverse panel of uncharacterized UBR-box domain homologs from 44 species (PS501-PS544) was designed. UBR-box domain homologs were expressed, purified, and evaluated for binding to N-terminal amino acids by biolayer interferometry. Measurements were carried out at 30° C. for each protein for R, K and H binding. The amino-acid binding profile of each new homolog was first evaluated by biolayer interferometry using a single-point screening assay. All peptides in this screen contained a penultimate alanine (A) and consisted of the sequence XAKLDEESILKQK (SEQ ID NO: 238), where X is R, K, or H.
# To evaluate the effect of penultimate amino acids on arginine binding, UBR box-domain homologs were evaluated for binding to 14 different peptides with N-terminal RX (peptide sequence: RXGGGDDDFFK (SEQ ID NO: 241)). The selected RX dipeptides are the 14 most frequently found in the human proteome.
# [7] = test system: labeled peptide (XAKLDEESILKQK-FITC (SEQ ID NO: 238)); RA, KA, HA; experiment: Single point fluorescence polarization assay of UBR-streptavidin complex; assay type: binding
# Protocol: Single point fluorescence polarization assays were then performed for selected candidates. These assays measured the interaction of labeled peptide (XAKLDEESILKQK-FITC (SEQ ID NO: 238)) with UBR-streptavidin complex in a format in which these molecules are free in solution. Measurements of polarization response (millipolarization, mP) and total intensity for RA, KA, and HA peptides were performed.
# [8] = test system: RA and KA peptides; experiment: Fluorescence polarization binding titration of UBR-box domain candidates (KD); conditions: RA peptide
# Protocol: The binding affinity of selected UBR-box domain candidates was then evaluated by measuring KD (dissociation constant) values for N-terminal R and K peptides. Assays were performed for RA and KA peptides at increasing concentration of UBR protein (FIG. 32G, top plots). KD values were determined from the binding titration curves.
# [9] = test system: dye-labeled RL peptide; experiment: Peptide-on-chip recognition assay for N-terminal arginine peptide; assay type: binding
# Protocol: Peptide-on-chip recognition assays for N-terminal arginine peptide were performed with PS621 and PS528. Both PS528 and PS621 recognized N-terminal R, and binding to dye-labeled RL peptide at the single-molecule level was confirmed in these recognition assays, with average pulse width of approximately 60 ms.
# [10] = molecular target: N-terminal arginine peptide (alanine at the penultimate position); experiment: Fluorescence polarization binding affinity of tandem recognizers, RA peptide
# Protocol: Three different constructs were designed and expressed for each multivalent UBR-box binder: PS690, PS691, and PS692 (Bis-PS621 binders having Linker 1, Linker 2, and Linker 3, respectively); and PS693, PS694, and PS695 (Bis-PS528 binders having Linker 1, Linker 2, and Linker 3, respectively). Fluorescence polarization studies were performed to evaluate the binding affinity of each of the multivalent UBR-box binders, and the corresponding monomeric binders, for a peptide having an N-terminal arginine residue with an alanine residue at the penultimate position. The KD values obtained from these studies are reported below in Table 11.
# [11] = test system: amino acid at a terminal position of a polypeptide; conditions: Table 2; amino acid identity at a terminal position (phosphotyrosine also internal); inferred from literature and/or demonstrated by the inventors; cited from earlier work
Molecule,LA kon [4] [M⁻¹ s⁻¹],LA koff [5] [s⁻¹],binding range for RX dipeptides [6],"binding to RA/KA/HA peptides (single-point screening) ([6]; 30° C., XAKLDEESILKQK)",polarization response with RA peptide [7],average pulse width [9],Binding Pref. [11],further results
PS609: single polypeptide with two tandem copies of atClpS2-V1 joined by Linker 1 (SEQ ID NO: 243) (protein) MSDSPVDLKPKPKVKPKLERPKLYKVMLLNDDYTPMSFVTVVLKAVFRMSEDTGRRVMMTAHRFGSAVVVVCERDIAETKAKEATDLGKEAGFPLMFTTEPEEGGGSGGGSGGGSGMSDSPVDLKPKPKVKPKLERPKLYKVMLLNDDYTPMSFVTVVLKAVFRMSEDTGRRVMMTAHRFGSAVVVVCERDIAETKAKEATDLGKEAGFPLMFTTEPEEGHHHHHHHHHHGGGSGGGSGGGSGLNDFFEAQKIEWHEGGGSGGGSGGGSGLNDFFEAQKIEWHE,,,,,,,,Kd [1]: 221 nM
"PS557: PS372-homologous ClpS protein, SEQ ID NO: 71 (protein, listed as Planctomycetes bacterium) MPTAASATESAIEDTPAPARPEVDGRTKPKRQPRYHVVLWNDDDHTYQYVVVMLQSLFGHPPERGYRLAKEVDTQGRVIVLTTTREHAELKRDQIHAFGYDRLLARSKGSMKASIEAEE",1.8e+06,0.22,,,,,,"Binding Pref. [2]: I, L, V; N-terminal amino acids bound (biolayer interferometry) [3]: binds N-terminal I, L, and V"
PS698 (protein) MPTAASATESAIEDTPAPARPEVDGRTKPKRQPRYHVVLWNDDDHTYQYVVVMLQSLFGHPPERGYRLAKEVDTQGRVIVLTTTREHAELKRDQIHAFGYDRLLARSKGSMKASIEAEEHHHHHHHHHHGGGSGGGSGGGSGLNDFFEAQKIEWHEGGGSGGGSGGGSGLNDFFEAQKIEWHEGSAGSAAGSGEFMDKDCEMKRTTLDSPLGKLELSGCEQGLHEIKLLGKGTSAADAVEVPAPAAVLGGPEPLMQATAWLNAYFHQPEAIEEFPVPALHHPVFQQESFTRQVLWKLLKVVKFGEVISYQQLAALAGNPAATAAVKTALSGNPVPILIPCHRVVSSSGAVGGYEGGLAVKEWLLAHEGHRLGKPGLG,4e+06,0.19,,,,,,
"PS528: UBR-box domain homolog, SEQ ID NO: 156 (protein, listed as Kluyveromyces lactis) MHSKFNHAGRICGAKFRVGEPIYRCKECSFDDTCVLCVNCFNPKDHVGHHVYTSICTEFNNGICDCGDKEAWNHELNCKGAED",,,extensive binding range for RX dipeptides,favorable binding trajectories to RA and KA peptides with notably high response for RA peptide,bind to RA peptides with strong responses,approximately 60 ms,"K, R, H","binding affinity to N-terminal R with different penultimate amino acids ([6]; 14 polypeptides containing N-terminal R): high binding affinity to R in the presence of a wide range of penultimate amino acids; dissociation trajectory and HA peptide binding ([6]; 30° C., XAKLDEESILKQK): slower dissociation trajectory and displayed binding to HA peptide; Kd [8]: 460 nM; Kd [10]: 403 nM"
"PS621: UBR-box domain homolog, SEQ ID NO: 181 (protein, listed as Kluyveromyces marxianus) MHSKFSHAGRICGAKFKVGEPIYRCKECSFDDTCVLCVNCFNPKDHTGHHVYTTICTEFNNGICDCGDKEAWNHTLFCKAEEG",,,extensive binding range for RX dipeptides,favorable binding characteristics with results that were similar to PS528,bind to RA peptides with strong responses,approximately 60 ms,"K, R, H",
